Assay results published in patent US20230174669A1 (ALIADA THERAPEUTICS, published 2023).
Changes are numbered by the printed parent chain.

B1: BBBB1067 (bispecific antibody)
heavy 1: EVQLVESGGGLVKPGGSLRLSCAASGFTFSSYAMSWVRQAPGKGLEWVASISKGGNTYYPDSVKGRFTISRDNAKNSLYLQMNSLRAEDTAVYYCARGWGDYGWFAYWGQVTLVTVSSASTKGPSVFPLAPSSKSTSGGTAALGCLVKDYFPEPVTVSWNSGALTSGVHTFPAVLQSSGLYSLSSVVTVPSSSLGTQTYICNVNHKPSNTKVDKKVEPKSCDKTHTCPPCPAPEAAGGPSVFLFPPKPKDTLYITREPEVTCVVVSVSHEDPEVKFNWYVDGVEVHNAKTKPREEQYNSTYRVVSVLTVLHQDWLNGKEYKCKVSNKALPAPIEKTISKAKGQPREPQVYVYPPSREEMTKNQVSLTCLVKGFYPSDIAVEWESNGQPENNYKTTPPVLDSDGSFALVSKLTVDKSRWQQGNVFSCSVMHEALHNHYTQKSLSLSPGGGAGGAQVQLVESGGGVVQPGRSLRLSCAASGFTFSSYGMHWVRQAPGKGLEWVAIISYDGSNKHYADSVKGRFTISRDNSKNTLYLQMNSLRAEDTAVYYCARAPSSFYFDYWGQGTLVTVSSGTEGKSSGSGSESKSTDIVMTQSPDSLAVSLGERATINCKSSQSVLFSSNNKNYLAWYQQKPGQPPKLLIYWASTRESGVPDRFSGSGSGTDFTLTISSLQAEDVAVYYCQQYYSTPPTFGQGTKVVIK
light: DIQMTQSPSSLSASVGDRVTITCKASQDINRYLNWFQQKPGKAPKTLIYRANRLLDGVPSRFSGSGSGTDFTLTISSLQPEDFATYYCQQYDEFPLTFGQGTKLEIKRTVAAPSVFIFPPSDEQLKSGTASVVCLLNNFYPREAKVQWKVDNALQSGNSQESVTEQDSKDSTYSLSSTLTLSKADYEKHKVYACEVTHQGLSSPVTKSFNRGEC
heavy 2: EVQLVESGGGLVKPGGSLRLSCAASGFTFSSYAMSWVRQAPGKGLEWVASISKGGNTYYPDSVKGRFTISRDNAKNSLYLQMNSLRAEDTAVYYCARGWGDYGWFAYWGQVTLVTVSSASTKGPSVFPLAPSSKSTSGGTAALGCLVKDYFPEPVTVSWNSGALTSGVHTFPAVLQSSGLYSLSSVVTVPSSSLGTQTYICNVNHKPSNTKVDKKVEPKSCDKTHTCPPCPAPEAAGGPSVFLFPPKPKDTLYITREPEVTCVVVSVSHEDPEVKFNWYVDGVEVHNAKTKPREEQYNSTYRVVSVLTVLHQDWLNGKEYKCKVSNKALPAPIEKTISKAKGQPREPQVYVLPPSREEMTKNQVSLLCLVKGFYPSDIAVEWESNGQPENNYLTWPPVLDSDGSFFLYSKLTVDKSRWQQGNVFSCSVMHEALHNHYTQKSLSLSPG
notes: also called tripod mAb Anti-Tau IgG1 AAS YTE with C98hc4
B2: BBBB1070 (bispecific antibody, human IgG1, kappa, L234A L235A)
heavy 1: EVQLVESGGGLVKPGGSLRLSCAASGFTFSSYAMSWVRQAPGKGLEWVASISKGGNTYYPDSVKGRFTISRDNAKNSLYLQMNSLRAEDTAVYYCARGWGDYGWFAYWGQVTLVTVSSASTKGPSVFPLAPSSKSTSGGTAALGCLVKDYFPEPVTVSWNSGALTSGVHTFPAVLQSSGLYSLSSVVTVPSSSLGTQTYICNVNHKPSNTKVDKKVEPKSCDKTHTCPPCPAPEAAGGPSVFLFPPKPKDTLYITREPEVTCVVVSVSHEDPEVKFNWYVDGVEVHNAKTKPREEQYNSTYRVVSVLTVLHQDWLNGKEYKCKVSNKALPAPIEKTISKAKGQPREPQVYVYPPSREEMTKNQVSLTCLVKGFYPSDIAVEWESNGQPENNYKTTPPVLDSDGSFALVSKLTVDKSRWQQGNVFSCSVMHEALHNHYTQKSLSLSPGGGAGGAQVQLQESGPGLVKPSETLSLTCTVSGGSISSSYWSWIRQPPGKGLEWIGYIYNSGSTNYNPSLKSRVTISVDTSKNQFSLKLSSVTAADTAVYYCARETYYFDYWGQGTLVTVSSGTEGKSSGSGSESKSTDIVMTQSQKFMSTSVGDRVSVTCKASQNVGINVAWYQKKPGQPPKALIYSAAYRYSGVPDRFTGSGSGTDFTLTISNVQSEDLAEYFCQQYNSYPLTFGSGTKLEIK
light: B1 light
heavy 2: B1 heavy 2
notes: also called tripod mAb Anti-Tau IgG1 AAS YTE with C98hc5
B3: BBBB1061 (bispecific antibody, human IgG1, kappa, L234A L235A)
heavy 1: EVQLVESGGGLVKPGGSLRLSCAASGFTFSSYAMSWVRQAPGKGLEWVASISKGGNTYYPDSVKGRFTISRDNAKNSLYLQMNSLRAEDTAVYYCARGWGDYGWFAYWGQVTLVTVSSASTKGPSVFPLAPSSKSTSGGTAALGCLVKDYFPEPVTVSWNSGALTSGVHTFPAVLQSSGLYSLSSVVTVPSSSLGTQTYICNVNHKPSNTKVDKKVEPKSCDKTHTCPPCPAPEAAGGPSVFLFPPKPKDTLYITREPEVTCVVVSVSHEDPEVKFNWYVDGVEVHNAKTKPREEQYNSTYRVVSVLTVLHQDWLNGKEYKCKVSNKALPAPIEKTISKAKGQPREPQVYVYPPSREEMTKNQVSLTCLVKGFYPSDIAVEWESNGQPENNYKTTPPVLDSDGSFALVSKLTVDKSRWQQGNVFSCSVMHEALHNHYTQKSLSLSPGGGAGGAQVQLVESGGGLVQAGGSLRLSCAASGRAFSSNGMGWFRQAPGKEREFVATISCSGTSTYYADSVKGRFTISRDNAKNTVYLQMNSLKPEDTAVYFCAADTRHCMGYTKDEGYAYWGQGTQVTVSS
light: B1 light
heavy 2: B1 heavy 2
notes: also called tripod mAb Anti-Tau IgG1 AAS YTE with C98hc2
B4: BBBB1201 (bispecific antibody)
heavy 1: B1 heavy 1 with S555A
light: B1 light
heavy 2: B1 heavy 2
B5: BBBB1202 (bispecific antibody)
heavy 1: B1 heavy 1 with S555H
light: B1 light
heavy 2: B1 heavy 2
B6: BBBB1065 (bispecific antibody)
heavy 1: B1 heavy 1 with A235L, A236L, Y253M, T255S, E257T, S266D
light: B1 light
heavy 2: B1 heavy 2 with A235L, A236L, Y253M, T255S, E257T, S266D
notes: also called tripod mAb Anti-Tau IgG1 with C98hc4

Key:
human CD98hc [1] = molecular target: T1, human CD98hc (human, UniProt P08195 105-529); assay: SPR ProteOn, anti-Tau tripod mAb captured by anti-Fc, huCD98hc flowed
T1 construct: Soluble protein flowed over captured tripod mAbs in SPR; also called huCD98hc; human CD98 heavy chain
T1 sequence: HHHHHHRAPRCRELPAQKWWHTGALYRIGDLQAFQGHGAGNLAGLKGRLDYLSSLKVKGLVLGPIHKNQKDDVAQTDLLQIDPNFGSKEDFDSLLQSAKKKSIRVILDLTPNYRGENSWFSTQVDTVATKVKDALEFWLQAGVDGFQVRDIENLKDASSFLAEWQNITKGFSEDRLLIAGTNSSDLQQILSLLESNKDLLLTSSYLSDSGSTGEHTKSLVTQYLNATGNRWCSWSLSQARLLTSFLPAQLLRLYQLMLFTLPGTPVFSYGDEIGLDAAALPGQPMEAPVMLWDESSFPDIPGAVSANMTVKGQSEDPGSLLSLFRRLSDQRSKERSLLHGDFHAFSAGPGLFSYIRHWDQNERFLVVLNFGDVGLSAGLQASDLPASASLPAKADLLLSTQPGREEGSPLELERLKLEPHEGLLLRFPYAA

human CD98hc [2] = molecular target: T1, human CD98hc; assay: SPR ProteOn, mAb captured by anti-Fc, huCD98hc flowed, 1:1 model
Protocol: An Fc capture surface was generated by coupling anti-IgG Fc mAb (Jackson ImmunoResearch) to a GLC chip (BioRad) using the amine-coupling chemistry (BioRad).
The chip surface was regenerated with two 18 second pulses of 100 mM H3PO4 (Sigma) at 100 μL/min. The collected data were processed using ProteOn Manager software V3.1.0.6 (BioRad). First, the data was corrected for background using inter-spots. Then, double reference subtraction of the data was performed by using the buffer injection for analyte injections. The kinetic analysis of the data was performed using a Langmuir 1:1 binding model.

Row | Binder | Kd (human CD98hc [1]) [nM] | koff (human CD98hc [1]) [s⁻¹] | kon (human CD98hc [1]) [M⁻¹ s⁻¹] | Kd (human CD98hc [2]) [nM] | koff (human CD98hc [2]) [s⁻¹] | kon (human CD98hc [2]) [M⁻¹ s⁻¹]
1 | B1 | 3.15 | 0.00138 | 439000 |  |  | 
2 | B2 | 118 | 0.00648 | 55700 |  |  | 
3 | B3 | 1.46 | 0.00135 | 935000 |  |  | 
4 | B4 |  |  |  | 16.9 | 0.006 | 357000
5 | B5 |  |  |  | 52.9 | 0.00882 | 167000
6 | B6 | 2.96 | 0.00139 | 470000 |  |  | 
